Results on ten molecules are retold here after patent US20240270826A1 (NATIONAL RESEARCH COUNCIL OF CANADA, published 2024).

Assay [1] has as its target T1, SARS-CoV-2 S on CHO-S cells (SARS-CoV-2, UniProt P0DTC2 14-1273).
T1 construct: whole, on cells
Put plainly: flow cytometry, CHO-S cells.

Assay [2] addresses T2, Human SARS-CoV-2_Wuhan S (SmT1) (SARS-CoV-2 (Wuhan), UniProt P0DTC2 14-1208). Put plainly: SPR, VHH over immobilised S. On the technique in general: Surface plasmon resonance follows binding to a sensor surface in real time, without labels.
The target in assay [3] is T2, Human SARS-CoV-2_Wuhan S (SmT1). Put plainly: SPR, VHH over immobilised S. This is another data set of the same source.
Assay [4] concerns the target Human SARS-CoV-2_Wuhan S (SmT1) (SARS-CoV-2 (Wuhan), UniProt P0DTC2 14-1208). Put plainly: flow cytometry SVNA, VHH-Fc vs biotin-S binding to Vero E6 ACE2. (A flow cytometer gives signals particle by particle.)

Like-named read-outs stand apart in the source and are kept apart here.

B1: NRCoV2-1a VHH-Fc (Fc fusion)
chain: EVKLVQSGGGSVQPGGSLRLSCAASGSTLDYYAIGWFRQAPGKEREWVSCVSSSDGSTLYADSVKGRFTISRDNAKNTVYLQMNSLKPEDTAVYVCAADYSMRPLWVSRWHRDYEYWGQGTQVTVSS
notes: bivalent VHH-Fc
A word on the EC50: it is the concentration needed to bring the measured effect to its halfway point. High values mean a less potent agent, low ones a more potent agent. Consider B1, for which, in assay [1], the Bmax stood at 17200 and the EC50 is 1.1 nM.

B2: NRCoV2-1d VHH (VHH)
VHH: EVQLVESGGGSVQPGGSLRLSCAASGSTLDYYAIGWFRQAPGKEREWVSSVSSSDGNTLYADSVKGRFTISRDNAKNTVYLQMNSLKAEDTAVYVCAADYSMRPFAVGRWHRDYEYWGQGTQVTVSS
For orientation: Kd means the free concentration of one partner at which half of the binding sites on the other are occupied at equilibrium, for simple one-to-one binding. Lower therefore signals a tighter complex. The koff is the rate constant with which the complex falls apart. The low end stands for a long-lived complex, the high end for a short-lived complex. As usually defined, the kon is a measure of how fast the partners come together. High values mean faster complex formation, low ones slower complex formation. B2: in assay [2], the Kd worked out at 0.75 nM, the dissociation rate constant (koff) worked out at 0.00105 s⁻¹ and the kon came out at 1.39e+06 M⁻¹ s⁻¹. This molecule had a Kd in assay [3] of 0.75 nM.

B3: NRCoV2-1a VHH-Fc (Fc fusion)
chain: EVKLVQSGGGSVQPGGSLRLSCAASGSTLDYYAIGWFRQAPGKEREWVSCVSSSDGSTLYADSVKGRFTISRDNAKNTVYLQMNSLKPEDTAVYVCAADYSMRPLWVSRWHRDYEYWGQGTQVTVSS
notes: bivalent VHH-Fc
Usually IC50 stands for the concentration needed to halve the response being measured. High values mean weaker potency, low ones greater potency. Broadly, the IC99 is the concentration at which the effect reaches the 99% level. Read a high IC99 as a need for much substance. In assay [4], B3 displayed a half-inhibitory concentration (IC50) of 9.2 nM, an IC99 of 89.4 nM and an Imax % of 94%.

B4: NRCoV2-SR02 VHH (VHH)
VHH: EVQLVDSGGGLVQAGGSLRLSCTASEFTLNYYSIGWFRQSPGKEREGVSCIRYSGGGIDYADSVKGRFTISRDNAKNTVYLTMNSLKPEDTAVYYCAADRLYSRACPTAGGRNYWGQGTQVTVSS
Regarding B4, in assay [2], the Kd was 0.135 nM, the koff came to 0.000669 s⁻¹ and the kon was found to be 4.98e+06 M⁻¹ s⁻¹. For the same molecule, binding in assay [3] was characterised by a dissociation constant (Kd) of 0.47 nM.

B5: NRCoV2-20 VHH (VHH)
VHH: EVQLQQSGGGLVQPGGSLRLSCAASGRTFSNYVVGWFRQAPQAPGKDHEFVAVISGSDTETYYADSVKGRFTISRDNAKNTVYLQMNSLKPEDTAVYYCAADRGMSYYYTRATEYYYWGQGTQVTVSS
With B5, in assay [2], binding was characterised by a dissociation constant (Kd) of 4.39 nM, the koff turned out to be 0.0116 s⁻¹ and the kon stood at 2.64e+06 M⁻¹ s⁻¹. The same molecule gave a Kd in assay [3] of 4.39 nM.

B6: NRCoV2-11a VHH-Fc (Fc fusion)
chain: EVQLQQSGGGLVQPGGSLRLSCAASGFTLDSYNIAWFRQAPGKEREWISYISRYYESTYYSDSVKGRFTTSRDGDKKTVSLQMNSLKSEDTAVYYCAARSRDFSSPISATDKYGSWGQGTQVTVSS
notes: bivalent VHH-Fc
In assay [1], B6 yielded a Bmax of 12000 and an EC50 of 2 nM.

B7: NRCoV2-11a VHH-Fc (Fc fusion)
chain: EVQLQQSGGGLVQPGGSLRLSCAASGFTLDSYNIAWFRQAPGKEREWISYISRYYESTYYSDSVKGRFTTSRDGDKKTVSLQMNSLKSEDTAVYYCAARSRDFSSPISATDKYGSWGQGTQVTVSS
notes: bivalent VHH-Fc
In assay [4], B7 yielded an IC50 of 9.7 nM, an IC99 of 67.6 nM and an Imax % of 46%.

B8: NRCoV2-S2H4 VHH-Fc (Fc fusion)
chain: QVQLVQSGGGLVQAGGSLRLSCAASGFTFNLYSIAWFRQAPGKEREGVSCINSGDRDSTTYYADSVKGRFTISRDNAKHTAYLQMDSLKPEDTAVYYCALVFGYTSRDYCLTPKRGNYWGQGTQVTVSS
notes: bivalent VHH-Fc
B8: in assay [1], the Bmax was 7910 and the midpoint of the response, the EC50, lay at 1 nM.

B9: NRCoV2-18 VHH (VHH)
VHH: EVQLVESGGGLVQAGGSLRLSCVASGITISGYNMAWWRQTRGKQTERVAFINSGGSTTYSDSVKGRFTISRDNGKNTAYLQMNSLNAEDTADYFCSLHTSHDYWGQGTQVTVSS
For the molecule B9, in assay [2], the affinity, expressed as Kd, was 0.318 nM; the koff came out at 9.39e-05 s⁻¹; the association rate constant (kon) turned out to be 295000 M⁻¹ s⁻¹. This molecule also returned a Kd in assay [3] of 0.32 nM.

B10: NRCoV2-MRed25 VHH-Fc (Fc fusion)
chain: EVQLVESGGGLVQAGGSLRLSCAASGHTFSRYGMGWFRQAPGKEREFVAAISWRGDSTYYRDSVNGRFTISRDNAKNTVYLGMNSLKPEDTAVYYCAAEMWGTATIVASRYTYWGQGTQVTVSS
notes: bivalent VHH-Fc
In assay [1], B10 registered a Bmax of 4420 and an EC50 of 0.8 nM.
